These results are taken from publication PMC11711613.

“And” between values parts separate entries of the source, which are not always exact repeats. Identical values can stand only once.

Assay [1] has as its target RctB domain IV (RctB^IV, amino acids 532 to 658) (Vibrio cholerae N16961). Nature of the assay: SEC; analytical SEC, Superdex 200 10/300, 50 mM Hepes, 200 mM NaCl, 2 mM MgCl2, 1 mM TCEP, calibrated with gel filtration standards. (In general: SEC sorts molecules by how far they enter the pores of the column.)
Assay [2] concerns the target RctB, full length (Vibrio cholerae N16961). Nature of the assay: cryo-EM 2D class averages; RctB at 0.25 mg/ml in 50 mM Hepes, 200 mM NaCl, 2 mM MgCl2, 1 mM TCEP; reference-free 2D classification.
Assay [3] has the same target. Nature of the assay: SEC; analytical SEC, Superdex 200 10/300, 50 mM Hepes, 200 mM NaCl, 2 mM MgCl2, 1 mM TCEP, calibrated with gel filtration standards.

By stoichiometry N is commonly meant the number of molecules, sites or subunits per partner or assembly.

The substance “RctB domain IV (RctB^IV, amino acids 532 to 658) (domain or fragment)” showed a stoichiometry N in assay [1] of 2.

RctB, full length (natural protein): the stoichiometry N in assay [2] was 2 and 4; in assay [3] it was 2 and 4.
